B1: Chikungunya/SL-CK1 E2 glycoprotein (natural protein)
chain: not shown
B2: MoNb-3C5 (VHH)
VHH: AVQLVESGGGLVQAGGSLRLSCAASGRSFSAYTMAWFRQAPGKEREWMASIVRSGGPTYYADSVKDRFTISRENARNTAYLQMNSLKPEDTAVYYCAADLGWTYSRSPELFGSWGQGTQVTVSS

Assays:
Assay in all cases: SPR
TriNb-2E8 = TriNb-2E8 (alpaca)
BiNb-2E8 = BiNb-2E8 (alpaca)
BiNb-3C5 = BiNb-3C5 (alpaca)
TriNb-3C5 = TriNb-3C5 (alpaca)
[1] = biological target: B1

Binder | koff (TriNb-2E8) [s⁻¹] | koff (BiNb-2E8) [s⁻¹] | koff (BiNb-3C5) [s⁻¹] | koff (TriNb-3C5) [s⁻¹] | koff [1] [s⁻¹]
B1 | 0.00274 | 0.000352 | 0.00549 | 0.00609 | –
B2 | – | – | – | – | 0.00991
